In the supplement of paper PMC7877785:
± gives the uncertainty stated by the source.

Experiment: self-splicing fitness, log relative to wild type (ln ratio); higher = more splicing; Tetrahymena group I intron in knt gene, E. coli kanamycin selection, DiMSum; sequences stand for … in CUCUCU…GGAGGGAAAAGUUAUCAGGCAUGCACCUGGUAGCUAGUCUUUAAACCAAUAGAUUGCAUCGGUUUAAAAGGCAAGACCGUCAAAUUGCGGGAAAGGGGUCAACAGCCGUUCAGUACCAAGUCUCAGGGGAAACUUUGAGAUGGCCUUGCAAAGGGUAUGGUAAUAAGCUGACGGACAUGGUCCUAACCACGCAGCCAAGUCCUAAGUCAACAGAUCUUCUGUUGAUAUGGAUGCAGUUCACAGACUAAAUGUCGGUCGGGGAAGAUGUAUUCUUCUCAUAAGAUAUAGUCGGACCUCUCCUUAAUGGGAGCUAGCGGAUGAAGUGAUGCAACACUGGAGCCGCUGGGAACUAAUUUGUAUGCGAAAGUAUAUUGAUUAGUUUUGGAGUACUCGUGGUCG
Outline: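 Fitness was computed with DiMSum as the error-weighted combination of replicate fold changes, kanamycin versus none, each normalised to wild type. The library randomised all eight intron nucleotides of the P1ex region, with the intron placed in the knt kanamycin-resistance gene on pET-22b(+) in E. coli BL21(DE3). Six replicate transformations were grown overnight at 37°C or 30°C on LB agar with or without 25 μg/mL kanamycin, plus 100 μg/mL carbenicillin, 50 μM IPTG and 0.2% rhamnose. Pooled colonies were amplicon-sequenced on an Illumina HiSeq 2500.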

Sequence | self-splicing fitness (ln) (30 °C) | self-splicing fitness (ln) (37 °C)
CGUAAGCAAUAUUACGCUGU | -2.93 ± 0.16 | -2.17 ± 0.21
GGGCAGCAAUAUUACGGUCC | -4.03 ± 0.46 | -2.14 ± 0.28
CUUUAGCAAUAUUACGGGCU | – | -1.66 ± 0.41
CGUCAGCAAUAUUACGCCAC | – | -1.01 ± 0.45
CUGAAGCAAUAUUACGCCCU | -3.03 ± 0.22 | -2.86 ± 0.47
CGAGAGCAAUAUUACGGUCA | -3.17 ± 0.27 | -2.29 ± 0.3
AUCAAGCAAUAUUACGUUCA | -1.91 ± 0.11 | -0.446 ± 0.13
UGAAAGCAAUAUUACGGGUG | -0.621 ± 0.051 | -0.399 ± 0.069
CAACAGCAAUAUUACGCUCC | -1.72 ± 0.098 | -0.675 ± 0.14
UAUCAGCAAUAUUACGACAU | -0.823 ± 0.012 | -0.0787 ± 0.032
GGCUAGCAAUAUUACGAAAC | – | -0.972 ± 0.4
GGGAAGCAAUAUUACGCUUU | -3.54 ± 0.24 | –
AGGCAGCAAUAUUACGAGAG | -3.49 ± 0.15 | -2.79 ± 0.15
UCUGAGCAAUAUUACGCGUA | -2.5 ± 0.19 | 0.763 ± 0.13
CAUGAGCAAUAUUACGACCU | -2.47 ± 0.29 | -0.931 ± 0.26
GCAUAGCAAUAUUACGUUUU | -3.61 ± 0.19 | -1.82 ± 0.19
AUGAAGCAAUAUUACGCCUA | 0.118 ± 0.087 | -0.0119 ± 0.14
CAUAAGCAAUAUUACGAGAG | -2.88 ± 0.18 | -1.32 ± 0.14
UGUAAGCAAUAUUACGGCGA | -0.0897 ± 0.085 | -0.0127 ± 0.11
ACCGAGCAAUAUUACGCCCA | -1.68 ± 0.29 | -3.03 ± 0.3
GUUCAGCAAUAUUACGUCGC | -0.991 ± 0.1 | -0.347 ± 0.12
CCAUAGCAAUAUUACGGCCA | -3.07 ± 0.37 | -3.3 ± 0.42
CAGGAGCAAUAUUACGUGCU | -2.91 ± 0.13 | -2.23 ± 0.14
UGCCAGCAAUAUUACGAUCU | -2.48 ± 0.1 | -1.44 ± 0.1
CUUCAGCAAUAUUACGGCAU | -2.78 ± 0.17 | -2.1 ± 0.2

Sequence | self-splicing fitness (ln) (30 °C) | self-splicing fitness (ln) (37 °C)
ACGUAGCAAUAUUACGGGGG | -3.84 ± 0.2 | -2.44 ± 0.16
GGCGAGCAAUAUUACGACGC | -1.89 ± 0.29 | –
UACCAGCAAUAUUACGUUAU | -2.97 ± 0.12 | -2.26 ± 0.14
GCUCAGCAAUAUUACGUCUG | -2.36 ± 0.094 | -1.99 ± 0.11
CUGAAGCAAUAUUACGCGAA | -3.12 ± 0.32 | -0.319 ± 0.18
GAGUAGCAAUAUUACGUUGU | -2.19 ± 0.17 | -1.41 ± 0.16
AAUUAGCAAUAUUACGACUU | 0.0659 ± 0.11 | 0.0237 ± 0.14
CAAAAGCAAUAUUACGGGGU | -4.06 ± 0.2 | -2.7 ± 0.18
GUCCAGCAAUAUUACGUGAG | 0.151 ± 0.044 | 0.375 ± 0.065
CGGUAGCAAUAUUACGUUCA | -1.32 ± 0.13 | -0.963 ± 0.15
GCAAAGCAAUAUUACGUUAG | -3.02 ± 0.13 | -1.82 ± 0.14
CAUAAGCAAUAUUACGCGUG | -3.79 ± 0.26 | -2.88 ± 0.2
AUGUAGCAAUAUUACGAUGA | -0.624 ± 0.15 | -1.66 ± 0.15
ACCGAGCAAUAUUACGUCGU | -3.09 ± 0.13 | -1.04 ± 0.11
GACGAGCAAUAUUACGGAGC | -4.4 ± 0.39 | -2.27 ± 0.22
UUCUAGCAAUAUUACGGCCU | -3.05 ± 0.38 | –
CUCGAGCAAUAUUACGAUUU | -3.73 ± 0.2 | -2.91 ± 0.21
AAGUAGCAAUAUUACGAGGC | -3.44 ± 0.29 | –
AAAAAGCAAUAUUACGGUGC | -3.45 ± 0.099 | -2.25 ± 0.081
CAUUAGCAAUAUUACGAUAC | -3.07 ± 0.47 | -2.23 ± 0.43
GGUAAGCAAUAUUACGGCCG | -0.712 ± 0.12 | -0.544 ± 0.17
ACCAAGCAAUAUUACGCUCA | -0.49 ± 0.098 | -0.055 ± 0.11
AGGGAGCAAUAUUACGGAGA | -2.65 ± 0.4 | -2.69 ± 0.32
UACGAGCAAUAUUACGCCUG | -1.65 ± 0.1 | -0.887 ± 0.14
UAGAAGCAAUAUUACGUGCA | -0.492 ± 0.087 | -0.0303 ± 0.093

Sequence | self-splicing fitness (ln) (30 °C) | self-splicing fitness (ln) (37 °C)
CCAAAGCAAUAUUACGUCUG | -0.9 ± 0.054 | -0.302 ± 0.066
GCCUAGCAAUAUUACGGUUG | -3.8 ± 0.14 | -1.62 ± 0.11
CUGUAGCAAUAUUACGUAAA | -3.52 ± 0.3 | -1.6 ± 0.23
UCACAGCAAUAUUACGGAUC | -4.77 ± 0.46 | -3.11 ± 0.33
AGAAAGCAAUAUUACGGAAU | -2.02 ± 0.15 | -1.74 ± 0.2
AAGUAGCAAUAUUACGCGGA | -2.09 ± 0.18 | -1.04 ± 0.15
UAAUAGCAAUAUUACGAGUA | -2.31 ± 0.14 | -0.79 ± 0.11
UCUAAGCAAUAUUACGACUC | -3.61 ± 0.48 | -2.43 ± 0.42
CCUCAGCAAUAUUACGCGGC | -3.25 ± 0.2 | -2.5 ± 0.2
AACUAGCAAUAUUACGACGC | -0.567 ± 0.1 | -0.205 ± 0.15
GUCAAGCAAUAUUACGGCGG | -4.75 ± 0.32 | -2.83 ± 0.24
AUACAGCAAUAUUACGGGUU | -1.9 ± 0.071 | -1.05 ± 0.077
UACAAGCAAUAUUACGAUGU | -3.72 ± 0.17 | -1.96 ± 0.14
CCACAGCAAUAUUACGUUAC | -3.16 ± 0.21 | -2.17 ± 0.17
GCAGAGCAAUAUUACGAGGG | -3.47 ± 0.22 | -2.2 ± 0.24
UACCAGCAAUAUUACGAACA | -0.482 ± 0.096 | -0.258 ± 0.12
UAUGAGCAAUAUUACGCGAA | -1.62 ± 0.18 | -0.947 ± 0.32
UGUUAGCAAUAUUACGGCGG | -0.72 ± 0.09 | -0.356 ± 0.1
AUUCAGCAAUAUUACGCACC | -0.502 ± 0.1 | 0.457 ± 0.12
AGGCAGCAAUAUUACGCGGG | -2.65 ± 0.14 | -2.55 ± 0.17
GGUCAGCAAUAUUACGCUCU | -1.58 ± 0.2 | 0.397 ± 0.34
GGAUAGCAAUAUUACGUAAG | -1.87 ± 0.17 | -0.386 ± 0.2
UAAGAGCAAUAUUACGCUCG | – | -0.845 ± 0.23
UCAGAGCAAUAUUACGACAA | – | -2.96 ± 0.49
CUGCAGCAAUAUUACGGGAU | -2.46 ± 0.096 | -2.1 ± 0.15

Sequence | self-splicing fitness (ln) (30 °C) | self-splicing fitness (ln) (37 °C)
UGGAAGCAAUAUUACGCUGU | -2.58 ± 0.41 | -2.3 ± 0.49
ACCGAGCAAUAUUACGGGUA | -2.6 ± 0.16 | -0.706 ± 0.13
GCAAAGCAAUAUUACGGGUG | -1.23 ± 0.047 | -1.23 ± 0.057
GUACAGCAAUAUUACGUGCG | -2.57 ± 0.12 | -1.21 ± 0.095
UCGGAGCAAUAUUACGUGAU | – | -3.24 ± 0.47
GCCGAGCAAUAUUACGCUAU | -2.6 ± 0.29 | -1.75 ± 0.15
GUUGAGCAAUAUUACGUUUU | -2.91 ± 0.22 | -2.88 ± 0.3
CAACAGCAAUAUUACGUCAU | -3.92 ± 0.12 | -1.86 ± 0.1
AGGGAGCAAUAUUACGCACU | -3.18 ± 0.4 | -0.0242 ± 0.24
GACCAGCAAUAUUACGCAAG | -1.81 ± 0.089 | -1.15 ± 0.11
AUGUAGCAAUAUUACGAACU | -0.642 ± 0.12 | 0.131 ± 0.15
AAACAGCAAUAUUACGAAUG | -2.81 ± 0.13 | -1.91 ± 0.15
AGAUAGCAAUAUUACGCUGU | -3.36 ± 0.25 | -3.22 ± 0.4
GACAAGCAAUAUUACGACCC | 0.926 ± 0.23 | -0.477 ± 0.39
UCCGAGCAAUAUUACGACAC | -2.81 ± 0.21 | -2.33 ± 0.23
GGCAAGCAAUAUUACGGCAC | -0.671 ± 0.071 | 0.369 ± 0.12
ACGCAGCAAUAUUACGAGAU | -3.32 ± 0.14 | -2.68 ± 0.18
AUAGAGCAAUAUUACGUCGG | -3.26 ± 0.14 | -2.27 ± 0.17
GUGUAGCAAUAUUACGUUGG | -4.05 ± 0.42 | -2.06 ± 0.21
UAUAAGCAAUAUUACGCCGU | -1.41 ± 0.49 | –
CUUAAGCAAUAUUACGGAGG | -2.43 ± 0.21 | -3.19 ± 0.37
UUCAAGCAAUAUUACGAUGG | -2.38 ± 0.19 | -1.95 ± 0.17
AGAUAGCAAUAUUACGCGAA | -3.1 ± 0.28 | -0.447 ± 0.17
UAUCAGCAAUAUUACGAGGC | – | -2.77 ± 0.37
